Measurements reported in the supplement of paper PMC12042874.
± gives the uncertainty stated by the source.

Test: amyloid nucleation score (Sup35N fusion, yeast selection) (log enrichment); library NNK2; higher = more nucleation; inactive = no reads after selection
How it was run: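 Plasmid inserts were Illumina-sequenced at input and output from psi-negative yeast expressing Sup35N fused to peptides of 20 random codons. The yeast were induced with 100 μM copper sulfate for 24 hours and grown 7 days at 30°C on medium lacking adenine and uracil, and sequences with under 100 input reads were excluded. Nucleation score is the DiMSum log enrichment of output over input reads, centred on the mode score of non-aggregating sequences.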

Substance	amyloid nucleation score
AFEFIPSKPRW	0.667 ± 0.66
AFLRLRWNSNPVISGTRNRR	0.777 ± 0.48
AFMCWSYRS	6.393 ± 0.043
AFMSYTSSSRYPVCYLSKFH	-0.74 ± 1.1
AFNDIYIMKMHIFGKSIVLL	inactive
AFVSYLCCGMYRVANSKSEG	9.903 ± 0.058
AFYIRLIAREP	inactive
AGFYHPSNFGCLGSGLLRTM	inactive
AGKFYAGRHNSD	inactive
AGKSTHLFLRAVVLLCGNPR	0.05 ± 0.35
AGLIRCLLRGTCNRNFFSLY	inactive
AGMPCKFIRARSSPYFRALC	0.495 ± 0.62
AGSNDEKNRWVTSL	-0.22 ± 1
AGSQVVVMVIGVSTWAVVDG	3.01 ± 0.14
AHEYEPNFFRLCYKVRLWNA	-0.244 ± 0.22
AHKKRDMWLRKPGL	1.68 ± 0.53
AILKWSLICMMGRDWYSQWF	6.317 ± 0.037
AILRRVKIQLPRIPPEYCGW	0.884 ± 0.49
AILSEGETGFVSDYRQVSEP	-0.004 ± 0.34
AIMYFVTCMKILMFVGNYVQ	-0.118 ± 0.27
AINAKRHTWLFNLHSTFLCF	2.8 ± 0.14

Substance	amyloid nucleation score
AIRRPDRSQFLAYLVSSCKF	-0.218 ± 0.45
AIVYDH	-0.291 ± 0.63
AIWYFFIRNYYPSLLQKRSL	1.89 ± 0.12
AKNVKKT	-0.575 ± 0.32
ALAYAWYLVGLLFSKVWRYS	0.095 ± 0.42
ALCIAGTLLYMANLISTLHG	0.439 ± 0.36
ALEVLTTLRISLPSHKGSSF	5.533 ± 0.051
ALLFYGKMY	5.966 ± 0.052
ALMDCACFVYSRD	-0.199 ± 1.1
ALNGFVYALLAGPGQRLIKP	1.36 ± 0.53
ALNLIV	-0.572 ± 0.32
ALNPVCL	0.623 ± 0.62
ALQDMTI	-0.176 ± 0.36
ALVAWVVSYYLALLCSPRQS	-0.1 ± 0.74
ALWTSC	2.35 ± 0.078
AMDMI	0.833 ± 0.8
AMFVLVGFEFY	1.47 ± 0.11
AMGNKREKVL	0.601 ± 0.44
AMGVC	-0.061 ± 0.41
AMSPGTVKRFGLLVALFQY	0.867 ± 0.74
AMSSA	0.906 ± 0.52

Substance	amyloid nucleation score
AMYICLRVIGSSGRSVMASK	0.782 ± 0.16
ANKTSPICSCVFNEL	6.3 ± 0.088
ANKTVFVLEMVGVRGFYLMP	2.66 ± 0.098
ANLSRCVELMSRPQSVD	1 ± 0.15
ANVGYFVGW	0.873 ± 0.31
APRGLTFVQQSVSSIHLTAK	0.345 ± 0.39
APRRVSERFGSIVWVRRNS	-0.547 ± 0.55
APSHPSTVFLYICLLFENKP	-0.128 ± 0.55
APVLSDN	-0.07 ± 0.49
AQLRKMSSVNYV	-0.825 ± 1.1
AQTSWNILFAKS	-0.501 ± 0.64
ARCCFVPEEYSVV	1.22 ± 0.25
ARCMGFLSGGIHYRYLTAQM	inactive
ARFFLHFG	6.2 ± 0.074
ARKISV	inactive
ARMRKFTCRDWFRDPMGQPA	0.854 ± 0.25
ARNSVKHSFFQVRRLHGSWD	0.367 ± 0.38
ARRVQRKSIPTFVSSAMMSD	-0.25 ± 0.36
ARTWGAAIWFMGN	4.09 ± 0.093
ARVIFAVSVLEFRVGYSQGA	3.87 ± 0.086
ARVNYLRTCKYASRNSFHRS	-0.913 ± 0.45

Substance	amyloid nucleation score
ARWWMSSKRR	0.026 ± 0.65
ASALGRWFTPHVSFIKYGGA	0.531 ± 0.49
ASCVVRGQYAQMVYCWRTLG	-0.072 ± 0.23
ASFMSISVYND	-0.32 ± 0.63
ASFQLELS	0.438 ± 0.38
ASGCLASEDKMGVYLWVV	0.171 ± 0.65
ASGSKDACGCATSCV	0.86 ± 0.13
ASHLWDGRSAWHTVLSLPVT	1.08 ± 0.18
ASIGY	0.663 ± 0.22
ASIYNFYVLNSPFLF	4.73 ± 0.081
ASLLSGFNFKSVRHGLRDLG	0.568 ± 0.24
ASNAWDRLGSVPGFSRGRLR	-0.308 ± 0.48
ASNMIV	-0.563 ± 0.33
ASPLQPLSGYVIVRVAPSIT	0.266 ± 0.51
ASQIDSLVRNRNCLNSTKIG	-0.23 ± 0.44
ASREWASSVVLW	0.427 ± 0.29
ASVNSRSINSSGQFPPCFRK	-0.434 ± 0.61
ATMEGSAECVFTRDIKIFRH	inactive
ATMVSPTSQLAPNMYNASLT	5.97 ± 0.085
ATYAGMFMEEMPEHYFVWGT	0.356 ± 0.74
